Experimental data from the Human Domainome abundance scans (Beltran et al. 2025).
± gives the uncertainty stated by the source.

B1: TOX high mobility group box family member 3, residues 256 to 323; numbered along this chain, O15405 (parent)
chain: QKPVSAYALFFRDTQAAIKGQNPNATFGEVSKIVASMWDSLGEEQKQVYKRKTEAAKKEYLKALAAYR

Variants of: B1
Assay: abundance fitness (aPCA) (normalised: wild type 0, dead -1); higher = more abundant; growth selection in yeast, the domain comes from the species named
Settings: Homo sapiens

| Variant | abundance fitness |
| --- | --- |
| G28E | 0.175 ± 0.075 |
| G28K | -0.027 ± 0.073 |
| G28P | 0.05 ± 0.049 |
| F11G | -0.915 ± 0.17 |
| F11R | -0.139 ± 0.085 |
| F11N | -0.19 ± 0.13 |
| F11S | -0.264 ± 0.1 |
| D39S | 0.021 ± 0.045 |
| D39C | -0.055 ± 0.43 |
| A66D | 0.509 ± 0.12 |
| L61N | -0.068 ± 0.13 |
| L61M | -0.138 ± 0.059 |
| L61H | 0.134 ± 0.034 |
| L61E | -0.064 ± 0.16 |
| Q1S | -0.386 ± 0.16 |
| V34P | -0.689 ± 0.11 |
| V34D | -0.541 ± 0.32 |
| V34S | -0.638 ± 0.091 |
| L41M | 0.09 ± 0.079 |
| L41H | -0.766 ± 0.19 |
| A55K | 0.049 ± 0.057 |
| S5C | -0.074 ± 0.11 |
| S5W | -0.491 ± 0.14 |
| S5Q | -0.527 ± 0.28 |

| Variant | abundance fitness |
| --- | --- |
| S5E | -0.022 ± 0.066 |
| Y60E | 0.08 ± 0.062 |
| R12N | 0.168 ± 0.093 |
| R12M | -0.052 ± 0.063 |
| K32R | -0.045 ± 0.057 |
| K32E | -0.167 ± 0.064 |
| N22A | -0.476 ± 0.095 |
| N22R | -0.044 ± 0.057 |
| N22Y | -0.121 ± 0.11 |
| K2R | -0.273 ± 0.064 |
| K2D | -0.311 ± 0.14 |
| K2Q | -0.337 ± 0.14 |
| A56F | -0.548 ± 0.23 |
| A56V | -0.054 ± 0.074 |
| A6W | -0.848 ± 0.13 |
| A35G | -0.122 ± 0.056 |
| N24L | -0.304 ± 0.049 |
| N24A | -0.183 ± 0.066 |
| I18Q | -0.833 ± 0.21 |
| E43D | -0.151 ± 0.12 |
| P23E | -0.558 ± 0.11 |
| P23V | -0.677 ± 0.11 |
| P23L | -0.689 ± 0.085 |
| T53M | -0.046 ± 0.096 |

| Variant | abundance fitness |
| --- | --- |
| T53C | -0.092 ± 0.063 |
| A65V | -0.049 ± 0.048 |
| A65L | -0.03 ± 0.056 |
| W38C | -0.743 ± 0.11 |
| W38S | -0.863 ± 0.098 |
| A8L | -0.235 ± 0.065 |
| A8W | -0.252 ± 0.098 |
| A8R | -0.027 ± 0.044 |
| A8V | -0.123 ± 0.056 |
| A8Y | -0.458 ± 0.24 |
| A8T | -0.196 ± 0.11 |
| E54G | -0.328 ± 0.046 |
| E54C | -0.244 ± 0.084 |
| E54R | -0.203 ± 0.048 |
| E54I | -0.012 ± 0.082 |
| E54L | -0.102 ± 0.045 |
| E54Q | -0.158 ± 0.07 |
| K58C | -0.095 ± 0.075 |
| K58W | -0.351 ± 0.083 |
| K58S | -0.051 ± 0.066 |
| K58D | -0.01 ± 0.094 |
| T26Y | -0.957 ± 0.26 |
| T26A | -0.25 ± 0.068 |
| K46L | -0.537 ± 0.058 |

| Variant | abundance fitness |
| --- | --- |
| K46H | -0.836 ± 0.24 |
| T14K | 0.066 ± 0.077 |
| T14G | -0.709 ± 0.11 |
| T14E | -0.292 ± 0.057 |
| T14H | -0.453 ± 0.34 |
| T14S | 0.087 ± 0.077 |
| A16S | -0.158 ± 0.055 |
| A16T | -0.047 ± 0.081 |
| A16K | 0.009 ± 0.067 |
| D13N | -0.462 ± 0.13 |
| D13C | -0.314 ± 0.091 |
| D13E | 0.11 ± 0.08 |
| D13G | -0.855 ± 0.22 |
| D13K | -0.646 ± 0.18 |
| G42F | -1.05 ± 0.32 |
| G42Q | -0.153 ± 0.09 |
| G42Y | -0.525 ± 0.15 |
| I33A | -0.104 ± 0.05 |
| I33S | -0.267 ± 0.05 |
| F10S | -0.267 ± 0.15 |
| F10E | -0.635 ± 0.12 |
| R51E | 0.222 ± 0.079 |
| Q21I | -0.346 ± 0.084 |
| Q21Y | -0.338 ± 0.1 |

| Variant | abundance fitness |
| --- | --- |
| E29L | -0.832 ± 0.099 |
| Q45W | -0.642 ± 0.095 |
| Q45Y | -0.373 ± 0.23 |
| Q45L | -0.433 ± 0.06 |
| Y67I | -0.012 ± 0.073 |
| Y67K | 0.244 ± 0.093 |
| Y67W | -0.158 ± 0.17 |
| L64V | 0.131 ± 0.05 |
| L64E | 0.354 ± 0.066 |
| L64Y | -0.172 ± 0.075 |
| L64P | 0.33 ± 0.071 |
| L64H | 0.285 ± 0.085 |
| L64W | -0.227 ± 0.08 |
| A17F | -0.071 ± 0.075 |
| A17E | -0.082 ± 0.1 |
| A17H | -0.044 ± 0.13 |
| Q15N | -0.212 ± 0.3 |
| Q15A | -0.512 ± 0.15 |
| Q15G | -0.6 ± 0.12 |
| S31Q | -0.063 ± 0.083 |
| S31F | -0.664 ± 0.12 |
| S31D | -0.105 ± 0.27 |
| S31H | -0.265 ± 0.11 |
| S31G | -0.224 ± 0.057 |

| Variant | abundance fitness |
| --- | --- |
| K52A | -0.368 ± 0.055 |
| K52R | 0.008 ± 0.042 |
| Y7F | -0.339 ± 0.15 |
| Y7I | -0.48 ± 0.14 |
| F27A | 0.249 ± 0.057 |
| F27W | -0.129 ± 0.053 |
| Q47V | -0.033 ± 0.086 |
| Q47L | -0.211 ± 0.061 |
| Q47H | -0.232 ± 0.1 |
| Q47T | -0.42 ± 0.14 |
| Q47M | -0.11 ± 0.089 |
| P3Y | -0.332 ± 0.12 |
| P3S | -0.052 ± 0.046 |
| P3G | 0.033 ± 0.049 |
| P3A | -0.213 ± 0.057 |
| P3L | -0.145 ± 0.045 |
| V4H | -0.182 ± 0.081 |
| L9N | -0.705 ± 0.41 |
| L9G | -0.303 ± 0.083 |
| L9S | 0.077 ± 0.091 |
| L9T | -0.039 ± 0.084 |
| E59D | 0.047 ± 0.11 |
| K62G | -0.133 ± 0.05 |
| K62W | -0.838 ± 0.11 |

| Variant | abundance fitness |
| --- | --- |
| K62I | -0.538 ± 0.093 |
| K62Q | -0.118 ± 0.07 |
| S36Q | 0.164 ± 0.065 |
| S36T | 0.067 ± 0.067 |
| S36G | 0.01 ± 0.053 |
| R68V | -0.355 ± 0.063 |
| R68P | 0.297 ± 0.066 |
| R68H | -0.137 ± 0.17 |
| R68M | -0.247 ± 0.11 |
| K19P | -1.03 ± 0.18 |
| K19H | -0.197 ± 0.094 |
| V30Y | -0.811 ± 0.17 |
| M37R | 0.013 ± 0.042 |
| M37V | -0.317 ± 0.064 |
| M37L | -0.219 ± 0.047 |
| M37G | -0.486 ± 0.067 |
| M37Y | -0.826 ± 0.32 |
| M37T | -0.036 ± 0.075 |
| M37E | -0.104 ± 0.065 |
| G20W | -0.455 ± 0.076 |
| G20K | -0.129 ± 0.11 |
| G20T | 0.038 ± 0.086 |
| A25T | -0.363 ± 0.082 |
